Results: article doi:10.1101/2025.06.08.658476

Legend:
[1] = molecular target: TycB1(S5Bpa)-His6, TycB1[COM^A-C-A-PCP] with p-benzoylphenylalanine at Ser5 (construct 25), holo-form; assay: cross-linking
[2] = molecular target: TycB1-His6, TycB1[COM^A-C-A-PCP] (construct 17), holo-form

T-crosslink intensity relative to WT TycA [1] [%] | L-crosslink intensity relative to WT TycA [1] [%] | D-Phe-L-Pro-DKP production with TycB1, normalised to wild-type TycA [2] [%] | Substance
33 |  |  | SBP-TycA with the single V1059 in the seam region deleted (construct 23), holo-form (enzyme)
46 |  |  | SBP-TycA P1063A, mutation in the lid (construct 24), holo-form (enzyme)
5 | 38 | 9 | SBP-TycA ΔV1059 to K1069, seam and lid deletion mutant (construct 19), holo-form (enzyme)
